Experiments:
[1] = system: AncSZ; test: phosphorylation enrichment, bacterial display (enrichment ratio); higher = better substrate or ligand; peptides without Tyr show the background
[2] = target: EPHB1 (UniProt P54762); test: as above
[3] = target: EPHB2 (UniProt P29323); test: as above
[4] = target: FGFR1 (UniProt P11362); test: as above
[5] = target: FGFR3 (UniProt P22607); test: as above
[6] = system: Fer (mouse); test: as above
[7] = target: Fes (UniProt P07332); test: as above
[8] = target: Fyn (UniProt P06241); test: as above
[9] = target: Hck (UniProt P08631); test: as above
[10] = target: Jak2 (UniProt O60674); test: as above
[11] = target: MERTK (UniProt Q12866); test: as above
[12] = system: c-Abl (mouse); test: as above
[13] = system: c-Src; test: as above
[14] = target: Grb2 SH2 (UniProt P62993); test: SH2 binding enrichment of the phosphorylated peptide, bacterial display (enrichment ratio); higher = better substrate or ligand; peptides without Tyr show the background
[15] = target: SHP2-C SH2; test: as above
[16] = target: c-Src SH2; test: as above
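Throughout, for SH2 binding enrichment of the phosphorylated peptide, bacterial display: peptide library displayed on the E. coli surface as eCPX fusions, selected cells deep-sequenced, score is each peptide's frequency after selection divided by its frequency in the input.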
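Throughout, for phosphorylation enrichment, bacterial display: 11-residue human phosphosite peptides and single-mutation variants displayed on the E. coli surface, counted by deep sequencing, each peptide's frequency after selection divided by its frequency in the unselected input library; frequency after pTyr selection over input frequency; kinase dosed for 20-30% of maximal phosphorylation in three min.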

Chain of EPHB2 (P29323 whole entry, looked up): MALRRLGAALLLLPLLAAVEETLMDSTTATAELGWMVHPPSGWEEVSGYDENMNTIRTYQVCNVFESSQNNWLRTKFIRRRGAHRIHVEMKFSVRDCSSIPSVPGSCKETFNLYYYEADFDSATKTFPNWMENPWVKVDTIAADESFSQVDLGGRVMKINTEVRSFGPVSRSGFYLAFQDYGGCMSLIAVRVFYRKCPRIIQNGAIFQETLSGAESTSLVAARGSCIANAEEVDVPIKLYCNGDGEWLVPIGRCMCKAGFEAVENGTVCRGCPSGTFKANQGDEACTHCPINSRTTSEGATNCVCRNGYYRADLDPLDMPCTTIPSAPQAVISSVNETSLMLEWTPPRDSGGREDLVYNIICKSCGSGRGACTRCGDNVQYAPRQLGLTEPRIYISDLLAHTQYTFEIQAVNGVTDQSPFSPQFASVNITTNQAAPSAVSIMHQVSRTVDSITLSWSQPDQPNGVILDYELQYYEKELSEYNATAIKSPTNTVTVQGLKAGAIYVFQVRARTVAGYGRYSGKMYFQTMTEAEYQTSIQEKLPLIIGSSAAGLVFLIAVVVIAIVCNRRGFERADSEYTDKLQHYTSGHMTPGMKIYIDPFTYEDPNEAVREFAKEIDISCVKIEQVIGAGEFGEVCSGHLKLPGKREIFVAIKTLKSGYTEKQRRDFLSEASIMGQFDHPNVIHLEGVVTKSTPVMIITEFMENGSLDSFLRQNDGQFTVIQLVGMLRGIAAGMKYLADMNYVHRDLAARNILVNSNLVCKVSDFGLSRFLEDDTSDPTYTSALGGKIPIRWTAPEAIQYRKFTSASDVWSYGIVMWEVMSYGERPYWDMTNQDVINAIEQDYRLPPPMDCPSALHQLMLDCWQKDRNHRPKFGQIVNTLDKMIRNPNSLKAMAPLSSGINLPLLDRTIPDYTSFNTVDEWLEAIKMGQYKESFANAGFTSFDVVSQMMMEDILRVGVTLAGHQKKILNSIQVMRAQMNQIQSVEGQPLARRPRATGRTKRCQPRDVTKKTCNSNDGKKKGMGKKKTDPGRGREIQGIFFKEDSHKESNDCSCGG
Chain of FGFR1 (P11362 whole entry, looked up): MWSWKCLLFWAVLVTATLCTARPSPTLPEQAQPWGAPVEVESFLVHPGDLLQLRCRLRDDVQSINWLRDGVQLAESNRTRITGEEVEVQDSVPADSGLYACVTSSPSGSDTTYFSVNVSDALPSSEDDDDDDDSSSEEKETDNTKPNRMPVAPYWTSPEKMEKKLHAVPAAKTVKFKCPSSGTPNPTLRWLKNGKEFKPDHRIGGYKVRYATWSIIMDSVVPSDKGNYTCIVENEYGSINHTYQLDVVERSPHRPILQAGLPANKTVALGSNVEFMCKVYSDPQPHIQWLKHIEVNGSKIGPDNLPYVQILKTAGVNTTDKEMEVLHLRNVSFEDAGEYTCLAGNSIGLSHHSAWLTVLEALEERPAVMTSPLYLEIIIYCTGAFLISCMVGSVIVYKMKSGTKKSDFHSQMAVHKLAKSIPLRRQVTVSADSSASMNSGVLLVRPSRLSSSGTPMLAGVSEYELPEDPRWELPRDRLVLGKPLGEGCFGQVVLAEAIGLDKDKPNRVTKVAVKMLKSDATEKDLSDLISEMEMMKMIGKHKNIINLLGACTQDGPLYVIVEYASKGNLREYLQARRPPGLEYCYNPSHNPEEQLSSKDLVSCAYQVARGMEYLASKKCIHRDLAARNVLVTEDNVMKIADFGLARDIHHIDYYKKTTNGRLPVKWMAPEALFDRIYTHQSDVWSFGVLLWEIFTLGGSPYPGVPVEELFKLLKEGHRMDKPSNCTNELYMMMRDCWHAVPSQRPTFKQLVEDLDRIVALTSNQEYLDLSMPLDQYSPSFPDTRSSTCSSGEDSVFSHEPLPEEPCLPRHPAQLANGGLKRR
Chain of MERTK (Q12866 whole entry, looked up): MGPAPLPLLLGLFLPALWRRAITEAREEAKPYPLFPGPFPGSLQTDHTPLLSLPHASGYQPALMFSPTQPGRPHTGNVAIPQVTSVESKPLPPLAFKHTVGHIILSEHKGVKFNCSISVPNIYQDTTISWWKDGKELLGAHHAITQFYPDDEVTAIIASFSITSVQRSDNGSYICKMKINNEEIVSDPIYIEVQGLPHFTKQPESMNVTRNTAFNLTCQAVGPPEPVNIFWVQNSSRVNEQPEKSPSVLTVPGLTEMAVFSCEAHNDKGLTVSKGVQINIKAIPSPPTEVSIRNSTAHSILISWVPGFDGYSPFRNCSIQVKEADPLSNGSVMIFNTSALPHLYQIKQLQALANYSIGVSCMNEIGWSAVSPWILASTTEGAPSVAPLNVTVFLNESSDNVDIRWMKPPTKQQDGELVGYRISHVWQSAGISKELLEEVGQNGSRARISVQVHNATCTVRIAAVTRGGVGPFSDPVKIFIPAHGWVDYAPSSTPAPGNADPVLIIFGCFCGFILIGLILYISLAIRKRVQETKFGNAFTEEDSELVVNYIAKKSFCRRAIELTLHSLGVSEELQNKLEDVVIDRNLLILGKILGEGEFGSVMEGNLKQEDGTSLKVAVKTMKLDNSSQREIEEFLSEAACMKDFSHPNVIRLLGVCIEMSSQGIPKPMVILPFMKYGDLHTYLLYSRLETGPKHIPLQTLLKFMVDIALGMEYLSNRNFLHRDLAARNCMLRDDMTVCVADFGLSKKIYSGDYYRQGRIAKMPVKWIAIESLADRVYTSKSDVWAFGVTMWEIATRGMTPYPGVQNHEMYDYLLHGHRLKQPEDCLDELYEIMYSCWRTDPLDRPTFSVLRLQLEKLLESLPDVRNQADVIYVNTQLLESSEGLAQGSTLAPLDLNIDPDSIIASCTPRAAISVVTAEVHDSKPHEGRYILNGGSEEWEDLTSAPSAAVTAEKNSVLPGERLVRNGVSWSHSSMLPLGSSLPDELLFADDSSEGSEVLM
Chain of EPHB1 (P54762 whole entry, looked up): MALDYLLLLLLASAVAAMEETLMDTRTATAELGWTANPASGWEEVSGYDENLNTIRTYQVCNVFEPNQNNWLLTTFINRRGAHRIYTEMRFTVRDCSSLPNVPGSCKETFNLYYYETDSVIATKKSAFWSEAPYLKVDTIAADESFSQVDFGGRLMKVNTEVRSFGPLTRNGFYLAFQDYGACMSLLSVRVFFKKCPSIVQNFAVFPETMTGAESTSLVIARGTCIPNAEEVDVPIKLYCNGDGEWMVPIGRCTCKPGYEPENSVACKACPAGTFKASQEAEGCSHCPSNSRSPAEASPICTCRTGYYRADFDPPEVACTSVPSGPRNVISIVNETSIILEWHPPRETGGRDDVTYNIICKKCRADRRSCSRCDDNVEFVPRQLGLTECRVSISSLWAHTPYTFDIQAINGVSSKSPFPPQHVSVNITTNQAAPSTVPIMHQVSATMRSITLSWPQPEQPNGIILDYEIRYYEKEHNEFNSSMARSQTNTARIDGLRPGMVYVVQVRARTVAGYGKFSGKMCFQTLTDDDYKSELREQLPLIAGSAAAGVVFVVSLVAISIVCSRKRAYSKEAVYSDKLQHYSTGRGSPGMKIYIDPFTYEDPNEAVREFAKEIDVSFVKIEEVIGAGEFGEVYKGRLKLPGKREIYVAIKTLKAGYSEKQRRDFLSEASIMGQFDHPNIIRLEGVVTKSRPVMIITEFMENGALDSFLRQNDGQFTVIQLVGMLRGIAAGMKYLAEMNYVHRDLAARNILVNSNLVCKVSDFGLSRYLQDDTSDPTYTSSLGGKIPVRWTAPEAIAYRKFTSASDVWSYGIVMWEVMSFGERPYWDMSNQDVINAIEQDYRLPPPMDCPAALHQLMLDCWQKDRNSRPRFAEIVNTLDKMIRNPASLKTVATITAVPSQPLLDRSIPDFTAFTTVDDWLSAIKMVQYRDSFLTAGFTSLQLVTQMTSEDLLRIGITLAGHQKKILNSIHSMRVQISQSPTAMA
Chain of FGFR3 (P22607 whole entry, looked up): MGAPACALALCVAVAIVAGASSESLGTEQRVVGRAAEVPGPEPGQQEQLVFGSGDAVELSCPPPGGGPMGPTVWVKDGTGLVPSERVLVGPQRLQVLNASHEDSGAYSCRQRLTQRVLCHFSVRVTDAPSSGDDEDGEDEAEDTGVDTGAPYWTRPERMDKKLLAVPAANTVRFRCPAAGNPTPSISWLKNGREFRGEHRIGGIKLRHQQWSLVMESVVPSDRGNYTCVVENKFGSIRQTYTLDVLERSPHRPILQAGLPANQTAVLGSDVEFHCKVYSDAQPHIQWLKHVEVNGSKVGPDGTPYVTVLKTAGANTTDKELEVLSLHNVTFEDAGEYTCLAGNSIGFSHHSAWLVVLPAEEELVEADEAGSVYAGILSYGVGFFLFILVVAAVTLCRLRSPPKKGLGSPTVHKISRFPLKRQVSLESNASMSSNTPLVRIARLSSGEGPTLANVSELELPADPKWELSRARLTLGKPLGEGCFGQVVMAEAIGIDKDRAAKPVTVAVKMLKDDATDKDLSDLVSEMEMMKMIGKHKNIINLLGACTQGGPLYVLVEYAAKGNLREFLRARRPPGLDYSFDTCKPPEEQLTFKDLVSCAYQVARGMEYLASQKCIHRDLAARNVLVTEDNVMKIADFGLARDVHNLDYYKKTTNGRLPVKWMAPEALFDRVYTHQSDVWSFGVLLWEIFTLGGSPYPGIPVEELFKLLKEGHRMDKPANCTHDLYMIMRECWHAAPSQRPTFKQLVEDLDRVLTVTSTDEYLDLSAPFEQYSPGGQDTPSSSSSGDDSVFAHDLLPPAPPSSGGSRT
Chain of Grb2 SH2 (P62993 whole entry, looked up): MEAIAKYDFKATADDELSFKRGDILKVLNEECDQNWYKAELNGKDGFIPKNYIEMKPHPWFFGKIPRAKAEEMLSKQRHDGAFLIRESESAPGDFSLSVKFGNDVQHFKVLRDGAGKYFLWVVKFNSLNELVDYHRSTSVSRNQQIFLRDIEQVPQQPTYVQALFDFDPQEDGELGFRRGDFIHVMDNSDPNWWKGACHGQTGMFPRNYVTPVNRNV

Sequence	phosphorylation enrichment [1]	phosphorylation enrichment [2]	phosphorylation enrichment [3]	phosphorylation enrichment [4]	phosphorylation enrichment [5]	phosphorylation enrichment [6]	phosphorylation enrichment [7]	phosphorylation enrichment [8]	phosphorylation enrichment [9]	phosphorylation enrichment [10]	phosphorylation enrichment [11]	phosphorylation enrichment [12]	phosphorylation enrichment [13]	SH2 binding enrichment [14]	SH2 binding enrichment [15]	SH2 binding enrichment [16]
FLAATYPTLGQ [NF1_Y2508_V2511L_YF]	0.572	0.723	0.4	0.424	0.572	0.4	0.674	0.422	0.389	0.523	0.356	0.549	0.404	0.866	0.814	0.572
FLAVGYHKLHI [IDS_Y225_P228L]	1.03	0.545	0.575	0.447	0.804	0.432	1.14	0.647	0.427	1.13	0.471	0.833	0.462	1.36	1.42	1.25
FLAVGYHKPRI [IDS_Y225_H229R]	0.638	0.477	0.44	0.379	0.5	0.402	0.838	0.426	0.374	0.502	0.272	0.481	0.305	1.61	1.6	1.64
FLAVGYHMPHI [IDS_Y225_K227M]	0.761	0.346	0.403	0.485	0.562	0.402	0.833	0.395	0.51	0.862	0.313	1.33	0.334	1.1	1.18	3.36
FLGKGYSDGGC [MC4R_Y35_S30F]	0.876	0.503	0.567	0.672	0.623	0.542	1.14	0.548	0.579	0.95	0.552	0.818	0.592	1.1	0.832	0.509
FPDFVYKCIKA [DPYSL2_Y479_R481C]	1.35	0.691	0.613	0.616	0.788	0.533	1.39	0.51	0.563	1.44	0.446	0.95	0.595	0.818	0.727	0.538
FPKVRYHWLVL [APTX_Y214_A212V_YF]	0.994	0.81	0.672	0.428	0.631	0.529	1.21	0.42	0.425	1.18	0.461	0.978	0.513	1.31	0.999	0.892
FPLELYERVRM [PRKCG_Y312_YF]	1.39	1.94	0.982	0.988	0.932	2.39	1.28	0.629	1.24	1.09	0.444	0.804	0.488	0.832	0.722	0.485
FPMLNYKDIRK [CFAP221_Y798]	0.49	0.292	0.384	0.346	0.408	0.362	0.628	0.493	0.441	0.469	0.431	0.398	0.416	0.976	0.635	0.516
FPPTHYIRRMP [SLC4A11_Y820_V824M_YF]	0.919	0.528	0.661	0.498	0.502	0.445	0.981	0.561	0.601	0.597	0.524	0.718	0.543	0.982	0.821	0.506
FQEKGYNKELR [CHRND_Y38]	0.675	0.45	0.268	0.471	0.519	0.376	0.74	0.335	0.351	0.57	0.382	0.45	0.378	0.814	0.882	0.485
FQEKSYIKGTS [LCTL_Y331_L326F]	0.625	0.33	0.531	0.423	0.426	0.355	0.657	0.364	0.398	0.87	0.321	0.612	0.457	0.918	0.553	0.416
FRQLPYCPSVE [CTNND2_Y508_Q507P_YF]	1.25	0.647	0.748	0.526	1.2	0.603	1.39	0.538	0.776	1.08	0.486	0.837	0.499	0.722	0.472	0.458
FRQLQYCPSVE [CTNND2_Y508_YF]	0.949	0.669	0.605	0.525	0.861	0.514	1.15	0.501	0.499	0.901	0.478	0.808	0.456	0.876	0.658	0.489
FSDPSYVKQME [CDC5L_Y464_YF]	0.867	0.476	0.581	0.558	1.36	0.452	0.939	0.532	0.505	0.704	0.407	0.471	0.411	0.883	0.892	0.518
FSGDCYRIQGR [DDR2_Y741_Y740C_YF]	0.989	0.593	0.659	0.431	0.666	0.493	1.05	0.446	0.472	0.764	0.35	0.636	0.45	0.806	0.661	0.502
FSLPAYMDRRD [COX4I1_Y38]	0.873	0.459	0.471	0.464	0.622	0.432	0.815	0.355	0.492	0.696	0.425	0.87	0.424	0.772	0.72	0.626

Sequence	phosphorylation enrichment [1]	phosphorylation enrichment [2]	phosphorylation enrichment [3]	phosphorylation enrichment [4]	phosphorylation enrichment [5]	phosphorylation enrichment [6]	phosphorylation enrichment [7]	phosphorylation enrichment [8]	phosphorylation enrichment [9]	phosphorylation enrichment [10]	phosphorylation enrichment [11]	phosphorylation enrichment [12]	phosphorylation enrichment [13]	SH2 binding enrichment [14]	SH2 binding enrichment [15]	SH2 binding enrichment [16]
FSMGCYEFSLG [HMGCL_Y198_I200F_YF]	2.26	1.12	0.984	0.733	1.14	3	1.53	0.881	0.706	1.2	0.964	1.47	1.25	0.923	0.976	0.498
FSPGSNERETF [NF1_Y2192_Y2192N]	0.835	0.408	0.605	0.53	0.583	0.538	0.856	0.484	0.484	0.849	0.414	0.599	0.424	0.886	0.662	0.447
FSQQVYRVNLS [FAT4_Y480]	0.658	0.563	0.48	0.49	0.516	0.495	0.729	1.01	0.392	0.762	0.409	0.532	0.623	0.827	0.882	0.48
FTNELYMMMRD [FGFR1_Y730_C725Y_YF]	1.37	3.18	1.69	1.54	1.53	0.752	1.24	1.1	1.99	0.938	3.53	0.57	1.29	0.844	0.661	0.604
FTRNFYVWAVL [CYBA_Y88_R90W_YF]	1.25	0.573	0.383	0.498	0.756	0.466	1.42	0.427	0.473	1.31	0.454	1.61	0.508	1.09	0.737	0.633
FVSAAYVKKLD [SPTAN1_Y1020_P1017S]	0.663	0.414	0.618	0.421	0.455	0.365	0.65	0.365	0.374	0.403	0.337	0.511	0.382	0.885	0.804	0.379
FVSIVYNDFGE [TSC2_Y1650_S1653F]	1.21	0.605	0.665	0.561	0.801	0.514	1.16	0.599	0.642	0.991	0.422	0.725	0.856	1.96	1.68	1.52
FVTCTYSPALN [TP53_Y126_S121F]	1.29	0.603	0.501	0.464	0.71	0.557	1.32	0.449	0.516	1.07	0.346	0.828	0.535	0.887	0.655	0.517
GAVGNYSRGLA [MGMT_Y158_G160R]	0.456	0.5	0.397	0.406	0.465	0.358	0.453	0.377	0.395	0.38	0.353	0.401	0.383	0.933	0.632	0.39
GCKNRYDEDKP [THAP1_Y14_K16E]	0.856	0.51	0.497	0.606	0.722	0.452	0.808	0.49	0.596	0.617	0.431	0.512	0.438	1.35	0.722	0.692
GCKNRYDKGKP [THAP1_Y14_D17G]	0.597	0.481	0.469	0.387	1.04	0.4	0.867	0.434	0.496	0.876	0.408	0.798	0.406	1.5	1.32	1.32
GCVRMYELVHR [GLE1_Y135]	1.07	7.65	3.69	0.498	0.71	4.34	1.28	0.599	1.64	1.01	2.95	0.754	0.761	1.06	0.908	2.25
GDGRFYMMEAI [PGM1_Y66_K68M]	1.04	0.569	0.553	0.511	0.731	0.539	1.26	0.51	0.459	1.16	0.46	0.735	0.88	0.683	0.584	0.419
GDPVQYNRTTD [MLPH_Y454]	0.705	0.521	0.551	0.465	0.7	0.435	1.04	0.412	0.381	0.959	0.429	0.78	0.452	0.812	0.738	0.459
GDRPVYSEDEQ [CHST6_Y362_Y358D]	1.54	0.812	0.702	0.667	0.872	0.653	1.57	0.698	0.662	1.27	0.565	1.06	0.673	0.992	0.639	0.82
GEDEPYSEPFA [APBA1_Y183_YF]	1.34	0.485	0.523	0.603	0.68	0.512	1.06	0.588	0.599	1.02	0.493	0.598	0.598	0.936	0.914	0.593

From the supplement of paper PMC10065799, “High-throughput profiling of sequence recognition by tyrosine kinases and SH2 domains using bacterial peptide display” (eLife, 2023)
